± gives the standard deviation of the averaged measurements.
B1: library; numbered along this chain (parent)
chain: MNIQIGELAKRTACPVVTIRFYEQEGLLPPPGRSRGNFRLYGEEHVERLQFIRHCRSLDMPLSDVRTLLSYRKRPDQDCGEVNMLLDEHIRQVESRIGALLELKHHLVELREACSGARPAQSCGILQGLSDCVCDTRGTTAHPSD

Tests used:
[1] = variants of: B1; assay: sfGFP reporter fluorescence (15 h) (µM FITC); higher = higher leak; conditions: library round: Round 0; ligand: none
How it was run: (§1)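 Values are endpoint sfGFP fluorescence given as µM FITC equivalents. Fluorescence was read at 485/528 nm on a Synergy Neo2, and FITC standard curves were prepared in 50 mM sodium borate pH 8.5. Reactions of 1 μL combined BL21 Star (DE3) PANOx-SP extract, pPbrR-sfGFP reporter, 30 μg/mL GamS and linear PbrR templates (PCR-made, Echo-normalized to 5 nM), with 1 µM lead chloride, 30 µM zinc acetate or no metal, for 15 hr at 30 °C.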

[2] = variants of: B1; assay: sfGFP reporter fluorescence (15 h) (µM FITC); higher = stronger transcriptional activation; conditions: library round: Round 0
How it was run: as §1

| Variant | sfGFP reporter fluorescence [1] | sfGFP reporter fluorescence ([2]; ligand: 1 µM Pb) | sfGFP reporter fluorescence ([2]; ligand: 30 µM Zn) |
| --- | --- | --- | --- |
| Y22A | 0.06029 ± 0.00026 | 0.0557 ± 0.0021 | 0.0634 ± 0.001 |
| Y22S | 0.0636 ± 0.0013 | 0.06084 ± 0.00052 | 0.0619 ± 0.001 |
| M60L D64K L107C | 5.66 ± 0.2 | 5.25 ± 0.066 | 5.27 ± 0.24 |
| H89N | 0.0597 ± 0.001 | 0.0663 | 0.261 ± 0.015 |
| H89I | 0.0539 ± 0.0047 | 0.0537 ± 0.0018 | 0.0594 ± 0.0021 |
| H89Y | 0.0596 ± 0.0018 | 0.0574 ± 0.0018 | 0.0566 ± 0.0023 |
| H89Q | 0.0645 ± 0.0047 | 0.108 ± 0.0029 | 1.3 ± 0.08 |
| V108M | 0.05662 ± 0.00026 | 0.0682 ± 0.0026 | 0.583 ± 0.019 |
| V108F | 0.0561 ± 0.001 | 0.0685 ± 0.001 | 0.436 ± 0.028 |
| V108D | 0.061 ± 0.00078 | 0.0931 ± 0.0015 | 1.45 ± 0.068 |
| V108G | 0.057 ± 0.00078 | 0.0658 ± 0.0049 | 0.567 ± 0.1 |
| V108R | 0.059 | 0.0788 ± 0.0021 | 0.8752 ± 0.0047 |
| V108K | 0.0607 ± 0.00078 | 0.0803 ± 0.0026 | 1.13 ± 0.093 |
| V108C | 0.0594 ± 0.0026 | 0.0788 ± 0.0015 | 1.04 ± 0.091 |
| D135S | 0.06011 ± 0.00052 | 0.08723 ± 0.00052 | 0.988 ± 0.095 |
| D135Y | 0.0676 ± 0.0039 | 0.116 ± 0.0073 | 1.46 ± 0.17 |
| D135E | 0.0579 ± 0.0021 | 0.0724 ± 0.0029 | 0.648 ± 0.055 |
| R20C | 0.063 ± 0.0015 | 0.0618 ± 0.00078 | 0.0634 ± 0.001 |
| R20W | 0.0625 ± 0.0018 | 0.06157 ± 0.00052 | 0.063 ± 0.0015 |
| R20V | 0.0623 ± 0.00052 | 0.0618 ± 0.0023 | 0.0627 ± 0.0026 |
| R20T | 0.0625 ± 0.0018 | 0.0612 ± 0.0021 | 0.06102 ± 0.00026 |
| R20H | 0.0618 ± 0.0044 | 0.0647 ± 0.0018 | 0.1048 ± 0.001 |

| Variant | sfGFP reporter fluorescence [1] | sfGFP reporter fluorescence ([2]; ligand: 1 µM Pb) | sfGFP reporter fluorescence ([2]; ligand: 30 µM Zn) |
| --- | --- | --- | --- |
| R20K | 0.0623 ± 0.001 | 0.0625 ± 0.0018 | 0.064 ± 0.00078 |
| C134N | 0.06505 ± 0.00026 | 0.081 ± 0.0031 | 1.39 ± 0.12 |
| C134H | 0.0645 | 0.0913 ± 0.0042 | 1.05 ± 0.012 |
| M60L L107C G128I | 2.19 ± 0.17 | 3.42 ± 0.14 | 2.98 ± 0.17 |
| S122A | 0.06249 ± 0.00026 | 0.0762 ± 0.0015 | 0.687 ± 0.05 |
| E7D | 0.0592 ± 0.0018 | 0.0823 ± 0.006 | 1.08 ± 0.044 |
| E7T | 0.0625 ± 0.0018 | 0.0894 ± 0.001 | 0.904 ± 0.041 |
| E7M | 0.0616 ± 0.0021 | 0.0854 ± 0.0021 | 0.859 ± 0.01 |
| E112I | 0.0542 ± 0.0015 | 0.06175 ± 0.00026 | 0.282 ± 0.021 |
| E112T | 0.0605 | 0.0804 ± 0.0029 | 0.857 ± 0.06 |
| E112V | 0.0572 ± 0.0015 | 0.06597 ± 0.00052 | 0.343 ± 0.0078 |
| E112F | 0.0575 ± 0.0026 | 0.0647 ± 0.0023 | 0.24 ± 0.012 |
| M60L D64K K104V G128I | 2.23 ± 0.091 | 3.3 ± 0.69 | 4.17 ± 0.28 |
| R39M | 0.06139 ± 0.00026 | 0.0616 ± 0.0026 | 0.0583 |
| Q50A | 0.06615 ± 0.00026 | 0.0891 | 0.743 ± 0.019 |
| I97R | 0.0577 ± 0.0054 | 0.0564 ± 0.0015 | 0.116 ± 0.0013 |
| P15V | 0.0757 ± 0.00078 | 0.07385 ± 0.00026 | 0.212 ± 0.018 |
| P15D | 0.066 ± 0.0057 | 0.0689 ± 0.0021 | 0.286 ± 0.008 |
| Q92A | 0.0592 ± 0.0013 | 0.063 ± 0.0026 | 0.421 ± 0.042 |
| N83W | 0.059 ± 0.0031 | 0.0748 ± 0.0042 | 0.0619 |
| N83P | 0.05772 ± 0.00026 | 0.0579 ± 0.001 | 0.0552 ± 0.0023 |
| L126Q | 0.05901 ± 0.00052 | 0.0577 ± 0.0018 | 0.05534 ± 0.00052 |

— the supplement of paper PMC12783771
